We go through one molecule from patent US20130052198A1, “ANTI-INFLAMMATORY FACTORS” (THE GENERAL HOSPITAL CORPORATION, priority 2010, published 2013).

“Also recorded” adds a separate entry of the source.

Assay [1] has as its system BALB/cJ mice challenged with a lethal dose of LPS. As to the kind of experiment: Lethal LPS model, survival. Type of assay: in vivo. To be noted: 350 μg LPS i.p. with 4 μg protein; monitored seven days. How it is done:
(§1) FIG. 8: In vivo hit screen and survival study. (a) Schematic of the in vivo LPS assay. Proteins were administered intraperitoneal (IP) at the concentration that elicited the strongest effect in vitro, followed by IP administration of LPS in conjunction with a second dose of the proteins 16 hours later. Two days after the combined LPS and second protein dose, the mice were sacrificed and assessed for changes in serum cytokines and tissue histology. (b) Serum IL-10 levels of BALB/cJ mice subjected to the in vivo LPS assay. * p<0.001 compared to saline. (c) Serum TNF-α levels of BALB/cJ mice subjected to the in vivo LPS assay. * p<0.001 compared to saline, ** p<0.05 compared to BMSC-CM. (d) Representative micrographs of lung tissue from mice subjected to the in vivo LPS assay stained with hematoxylin and eosin. (e) Survival of mice subjected to a lethal dose of LPS i.p. (350 μg) concurrently with i.p. saline vehicle (bold dark blue line), 5 μg Anti-TNF-α antibody (thin dark blue line), 4 μg PENK (bold light blue line) or 4 μg MFAP5 (thin light blue line). Scale bar=200 μm.
All procedures were performed in accordance with the animal rights policies of the Massachusetts General Hospital Subcommittee on Research Animal Care. […] Mice were monitored for survival for seven days (168 hours).

The test system of assay [2] is colitic mice (TNBS colitis). As to the kind of experiment: TNBS colitis in mice, colon histopathology. Type of assay: in vivo. To be noted: 3 μg protein twice over 24 h; sacrifice at day 2; compared to vehicle (saline). How it is done:
FIG. 6: Administered MFAP5 and LGALS3BP protect mice from developing TNBS colitis. Mice were presensitized via the skin with 1% TNBS one week prior to intra-rectal administration of 3 mg of TNBS per mouse in a mixture of 50% EtOH and 50% sterile water to induce colitis. Mice were treated with 3 μg each of MFAP5, LGALS3BP and GALNT1 twice over a 24 hour period, once in conjunction with the TNBS administration and once 24 hours later. Mice were then sacrificed at day 2 and tissue collected for analysis. As expected, mice treated with vehicle (saline) developed extensive inflammation of the colon with loss of crypts and frank necrosis of the intestinal epithelium.
MFAP5, LGALS3BP and PENK all protected the colonic epithelium from the hallmark features of TNBS colitis: necrosis, inflammatory infiltrate and loss of crypts. Especially at the microscopic level, the tissue of the MFAP5, LGALS3BP and PENK treated animals looked mostly normal with minor foci of inflammation and edema.

The subject of assay [3] is human peripheral blood mononuclear cells (PBMCs). The assay can be described thus: PBMC potency assay (IL-10 assay): IL-10 secretion by LPS-stimulated PBMCs, ELISA. To be noted: recombinant molecules diluted in RPMI 1640. Type of assay: cell-based. The text has this: FIG. 1: MSC conditioned medium causes peripheral blood mononuclear cells to secrete IL-10 in response to LPS, providing the basis for differential gene expression analysis to identify genes responsible for the increased activity. (a) Generalized schematic of EPS methodology. Protein products are derived from various cell types in the form of conditioned media and screened for activity in an in vitro potency assay. […] Recombinant protein products of the enriched gene list are then screened in a potency assay and the candidates with the highest activity are assessed for activity in vivo. (b) In vitro potency assay. This assay entails incubating primary human peripheral blood mononuclear cells (PBMCs) in the presence of protein products (e.g., conditioned medium from a cell) for 16 hours, followed by stimulation of the PBMCs with LPS for five hours, and measurement of IL-10 secretion into the supernatant via ELISA. (c) Time course of IL-10 expression from PBMCs when incubated with either bone marrow stromal cell conditioned medium (BMSC-CM) or unconditioned medium (DMEM) in the potency assay. (d) Comparison of potency assay activity of conditioned medium from normal human dermal fibroblasts (FB-CM), BMSCs (BMSC-CM) and BMSCs preincubated with LPS prior to conditioning (BMSCLPS-CM). * p<0.001 compared to FB-CM, ** p<0.001 compared to BMSC-CM. (e) Schematic of the differential gene expression comparison strategy to select for genes uniquely expressed at high levels in LPS stimulated MSCs (MSCLPS) compared to MSCs and fibroblasts (FBs). Analysis was then conducted on the genes identified to select for genes that were most likely to be responsible for secreted proteins. MSCLPS, LPS stimulated MSC; FB, fibroblast. […]
Leukocytes were prepared from fresh whole human blood, collected and spun in the presence of Ficoll for 30 minutes at 1500×g. […] The resultant supernatants were collected and analyzed via ELISA for human interleukin-10 (IL-10). […]
Background: In an ELISA, binding on a coated surface is turned into a signal by an enzyme label.

Assay [4] concerns human leukocytes in culture. As to the kind of experiment: Cytokine production (IL-10 or IFN-γ) in human leukocytes in culture. Type of assay: cell-based. To be noted: concentrations within five orders of magnitude of 10 μg/mL. How it is done: Leukocytes were prepared from fresh whole human blood, collected and spun in the presence of Ficoll for 30 minutes at 1500×g. The mononuclear cell layer was transferred to a new tube where it was washed once with RPMI 1640. The mononuclear cells were plated at a density of 1×10^5 per well of a 96-well plate in 50 μL of RPMI 1640 per well. MSC-CM was then immediately added to each well and allowed to incubate in the presence of the mononuclear cells for 16 hours. After incubation, 50 μL of RPMI 1640 containing 10 μg/mL of LPS was added to each well and allowed to incubate for an additional 5 hours. The resultant supernatants were collected and analyzed via ELISA for human interleukin-10 (IL-10). This procedure of incubating leukocytes with MSC-CM to determine IL-10 stimulating activity will be henceforth referred to as the “IL-10 assay”.
Preparations and use of MSC-CM, Fb-CM, LPS-stimulated MSC-CM, leukocytes were as described in Examples 1-3 and the Figures. These conditioned media preparations were added to leukocyte cultures for 16 hours, after which the culture was stimulated with LPS at 10 μg/ml. The medium from this culture was collected 24 hours after LPS stimulation of leukocytes and analyzed using an IFN-γ ELISA.

Assay [5] has as its system BALB/cJ mice challenged with a sub-lethal dose of LPS. The assay can be described thus: In vivo LPS assay, sub-lethal LPS model: serum cytokines and lung histology. How it is done: as §1
All procedures were performed in accordance with the animal rights policies of the Massachusetts General Hospital Subcommittee on Research Animal Care. For the sub-lethal LPS model, eight week old female BALB/cJ mice (n≧3) (Jackson Laboratories, Bar Harbor, Me.) were administered an initial dose of either vehicle or one of the experimental therapies IP: 200 μL of saline (vehicle), or 3 μg of protein (e.g., GALNT1, LGALS3BP, MFAP5 or PENK) diluted in 200 μL of saline, or 1 mL of 1×BMSC-CM. 16 hours later, mice received a second dose of either vehicle or therapy in conjunction with a dose of 100 μg of LPS (E. coli 0111:B4; Sigma, St. Louis, Mo.) diluted in physiological saline. 48 hours later, mice were sacrificed and tissue and blood were collected for analysis. Serum was tested for the presence of IL-10 and TNF-α via ELISA and lungs, livers and kidneys of the animals were preserved for hematoxylin and eosin staining. For the lethal LPS model, eight week old female BALB/cJ mice (n≧5) were co-administered a lethal dose of LPS (350 μg LPS in 100 μL physiological saline) and either vehicle (negative control), 5 μg anti-TNF-α (positive control; R&D Systems, Minneapolis, Minn.), 4 μg MFAP5 diluted in 100 μL of physiological saline, or 4 μg of PENK diluted in 100 μL of physiological saline. Mice were monitored for survival for seven days (168 hours).

Setting [6] is: 3 μg protein or 1 mL 1×BMSC-CM IP, twice, 100 μg LPS, 48 h later, compared to saline.

B1: MFAP5: Microfibrillar-associated protein 5, ECM glycoprotein; recombinant form tested (protein, UniProt Q13361 22-173, looked up)
Microfibrillar-associated …: IPLGVNSQRGDDVTQATPETFTEDPNLVNDPATDETVLAVLADIAPSTDDLASLSEKNTTAECWDEKFTCTRLYSVHRPVKQCIHQLCFTSLRRMYIVNKEICSRLVCKEHEAMKDELCRQMAGLPPRRLRRSNYFRLPPCENVDLQRPNGL
Consider B1, for which the survival result in assay [1] was “significant survival benefit”. For the same molecule, the “protection from TNBS colitis (colon histopathology)” value in assay [2] is given as “protect the mice from developing acute colitis; also recorded: significant attenuation of colitis; also recorded: protected from developing extensive colonic inflammation”. Also, the “increase of IL-10 production compared to 10×MSC-CM” value in assay [3] was “superior to that induced by 10×MSC-CM”. Also, the “promote IL-10 production or suppress IFN-γ production” value in assay [4] is on record as “either promote IL-10 production or suppress IFN-γ production”. Further, in assay [5] (setting [6]), the “serum IL-10 levels” value is “Significantly elevated” and the “serum TNF-α” value was “significantly suppressed”. The “lung histology (lung protection)” value in assay [5] (hematoxylin and eosin, sub-lethal LPS model, compared to vehicle) was “superior lung protection”. Also, the “TNF-α suppression compared to BMSC-CM” value in assay [5] (serum, sub-lethal LPS model) is on record as “superior TNF-α suppression”.
